Assay [1] has as its target recombinant human calcitonin receptor (hCT-R) (human), P30988. As to the kind of experiment: cell-based or functional assay.
Assay [2] has as its target recombinant human amylin 3 receptor (hAMYR3) (human), P30988. As to the kind of experiment: cell-based or functional assay.

Numbered stars: 1 amine (or outer) side, 2 acyl side, 3 side chain; on linkers, the order of the positions; unused ones are H or OH. Bridge positions count the residues as written; N and C are the ends. Square brackets hold non-standard residues; d marks the D form. * marks the point of attachment. C20 diacid = O=C(O)CCCCCCCCCCCCCCCCCCC(=O)*; γGlu = O=C(O)[C@H](CCC(=O)[*:2])N[*:1]; Hyp = O=C(O)[C@@H]1C[C@@H](O)CN1; NMeI = CC[C@H](C)[C@H](NC)C(=O)O; Aad = N[C@@H](CCCC(=O)O)C(=O)O; Orn = NCCC[C@H](N)C(=O)O; Dab = NCC[C@H](N)C(=O)O; Dap = NC[C@H](N)C(=O)O; Sar = CNCC(=O)O

Sequence of recombinant human amylin 3 receptor (hAMYR3) (human), P30988 (P30988 25-474, chain 1 of 2): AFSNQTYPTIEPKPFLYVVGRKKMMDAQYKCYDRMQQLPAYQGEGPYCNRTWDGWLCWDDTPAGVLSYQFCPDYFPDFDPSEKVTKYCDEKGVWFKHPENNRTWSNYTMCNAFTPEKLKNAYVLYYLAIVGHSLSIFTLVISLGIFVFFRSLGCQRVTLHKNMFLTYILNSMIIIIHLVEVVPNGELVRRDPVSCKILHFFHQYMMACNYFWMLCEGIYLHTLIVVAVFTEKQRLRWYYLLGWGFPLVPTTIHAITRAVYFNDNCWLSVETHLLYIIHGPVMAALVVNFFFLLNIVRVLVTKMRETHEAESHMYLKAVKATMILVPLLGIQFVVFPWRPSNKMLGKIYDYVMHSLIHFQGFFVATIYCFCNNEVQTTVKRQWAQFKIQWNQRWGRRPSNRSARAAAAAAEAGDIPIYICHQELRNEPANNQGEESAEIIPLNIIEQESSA
Sequence of recombinant human amylin 3 receptor (hAMYR3) (human), P30988 (O60896 24-148, chain 2 of 2, further chain): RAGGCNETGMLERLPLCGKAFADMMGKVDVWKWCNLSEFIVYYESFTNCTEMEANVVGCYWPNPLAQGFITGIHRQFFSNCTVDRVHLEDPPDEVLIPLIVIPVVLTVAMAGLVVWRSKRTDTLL
Sequence of recombinant human calcitonin receptor (hCT-R) (human), P30988 (P30988 25-474): as the sequence (P30988 25-474, chain 1 of 2) above

B1: Compound 5 (peptide)
peptide: {C20 diacid-γGlu}-RDGTAT[Orn]ATERLAHFLQRSSF[Sar]A[NMeI]PSSTEVGSNT[Hyp]-NH2
modifications: lactam 2-7
SMILES: CC[C@H](C)[C@@H](C(=O)N1CCC[C@H]1C(=O)N[C@@H](CO)C(=O)N[C@@H](CO)C(=O)N[C@H](C(=O)N[C@@H](CCC(=O)O)C(=O)N[C@H](C(=O)NCC(=O)N[C@@H](CO)C(=O)N[C@@H](CC(N)=O)C(=O)N[C@H](C(=O)N1C[C@H](O)C[C@H]1C(N)=O)[C@@H](C)O)C(C)C)[C@@H](C)O)N(C)C(=O)[C@H](C)NC(=O)CN(C)C(=O)[C@H](Cc1ccccc1)NC(=O)[C@H](CO)NC(=O)[C@H](CO)NC(=O)[C@H](CCCNC(=N)N)NC(=O)[C@H](CCC(N)=O)NC(=O)[C@H](CC(C)C)NC(=O)[C@H](Cc1ccccc1)NC(=O)[C@H](Cc1c[nH]cn1)NC(=O)[C@H](C)NC(=O)[C@H](CC(C)C)NC(=O)[C@H](CCCNC(=N)N)NC(=O)[C@H](CCC(=O)O)NC(=O)[C@@H](NC(=O)[C@H](C)NC(=O)[C@@H]1CCCNC(=O)C[C@H](NC(=O)[C@H](CCCNC(=N)N)NC(=O)CC[C@H](NC(=O)CCCCCCCCCCCCCCCCCCC(=O)O)C(=O)O)C(=O)NCC(=O)N[C@@H]([C@@H](C)O)C(=O)N[C@@H](C)C(=O)N[C@@H]([C@@H](C)O)C(=O)N1)[C@@H](C)O
On to B1, for which, in assay [1], the hCT-R EC50 [nM] (cAMP formation, 1321N1 cells expressing hCT-R) came out at 0.114 nM. In addition, the hAMYR3 EC50 [nM] (cAMP formation, 1321N1 cells expressing hAMYR3) in assay [2] stood at 0.032 nM.

B2: Compound 51 (peptide)
peptide: {C20 diacid-γGlu}-REGTAT[Dab]ATERLAHFLQRSSF[Sar]A[NMeI]LSSTEVGSNT[Hyp]-NH2
modifications: lactam 2-7
SMILES: CC[C@H](C)[C@@H](C(=O)N[C@@H](CC(C)C)C(=O)N[C@@H](CO)C(=O)N[C@@H](CO)C(=O)N[C@H](C(=O)N[C@@H](CCC(=O)O)C(=O)N[C@H](C(=O)NCC(=O)N[C@@H](CO)C(=O)N[C@@H](CC(N)=O)C(=O)N[C@H](C(=O)N1C[C@H](O)C[C@H]1C(N)=O)[C@@H](C)O)C(C)C)[C@@H](C)O)N(C)C(=O)[C@H](C)NC(=O)CN(C)C(=O)[C@H](Cc1ccccc1)NC(=O)[C@H](CO)NC(=O)[C@H](CO)NC(=O)[C@H](CCCNC(=N)N)NC(=O)[C@H](CCC(N)=O)NC(=O)[C@H](CC(C)C)NC(=O)[C@H](Cc1ccccc1)NC(=O)[C@H](Cc1c[nH]cn1)NC(=O)[C@H](C)NC(=O)[C@H](CC(C)C)NC(=O)[C@H](CCCNC(=N)N)NC(=O)[C@H](CCC(=O)O)NC(=O)[C@@H](NC(=O)[C@H](C)NC(=O)[C@@H]1CCNC(=O)CC[C@H](NC(=O)[C@H](CCCNC(=N)N)NC(=O)CC[C@H](NC(=O)CCCCCCCCCCCCCCCCCCC(=O)O)C(=O)O)C(=O)NCC(=O)N[C@@H]([C@@H](C)O)C(=O)N[C@@H](C)C(=O)N[C@@H]([C@@H](C)O)C(=O)N1)[C@@H](C)O
With B2, the hCT-R EC50 [nM] (cAMP formation, 1321N1 cells expressing hCT-R) in assay [1] was found to be 0.861 nM. Also, the hAMYR3 EC50 [nM] (cAMP formation, 1321N1 cells expressing hAMYR3) in assay [2] stood at 0.306 nM.

B3: Compound 50 (peptide)
peptide: {C20 diacid-γGlu}-R[Aad]GTAT[Dap]ATERLAHFLQRSSF[Sar]A[NMeI]LSSTEVGSNT[Hyp]-NH2
modifications: lactam 2-7
SMILES: CC[C@H](C)[C@@H](C(=O)N[C@@H](CC(C)C)C(=O)N[C@@H](CO)C(=O)N[C@@H](CO)C(=O)N[C@H](C(=O)N[C@@H](CCC(=O)O)C(=O)N[C@H](C(=O)NCC(=O)N[C@@H](CO)C(=O)N[C@@H](CC(N)=O)C(=O)N[C@H](C(=O)N1C[C@H](O)C[C@H]1C(N)=O)[C@@H](C)O)C(C)C)[C@@H](C)O)N(C)C(=O)[C@H](C)NC(=O)CN(C)C(=O)[C@H](Cc1ccccc1)NC(=O)[C@H](CO)NC(=O)[C@H](CO)NC(=O)[C@H](CCCNC(=N)N)NC(=O)[C@H](CCC(N)=O)NC(=O)[C@H](CC(C)C)NC(=O)[C@H](Cc1ccccc1)NC(=O)[C@H](Cc1c[nH]cn1)NC(=O)[C@H](C)NC(=O)[C@H](CC(C)C)NC(=O)[C@H](CCCNC(=N)N)NC(=O)[C@H](CCC(=O)O)NC(=O)[C@@H](NC(=O)[C@H](C)NC(=O)[C@@H]1CNC(=O)CCC[C@H](NC(=O)[C@H](CCCNC(=N)N)NC(=O)CC[C@H](NC(=O)CCCCCCCCCCCCCCCCCCC(=O)O)C(=O)O)C(=O)NCC(=O)N[C@@H]([C@@H](C)O)C(=O)N[C@@H](C)C(=O)N[C@@H]([C@@H](C)O)C(=O)N1)[C@@H](C)O
As for B3, the hCT-R EC50 [nM] (cAMP formation, 1321N1 cells expressing hCT-R) in assay [1] was 3.3 nM. Further, the hAMYR3 EC50 [nM] (cAMP formation, 1321N1 cells expressing hAMYR3) in assay [2] came out at 1.5 nM.

B4: Ref. 1 (peptide)
peptide: {C20 diacid-γGlu}-RDGTAT[Orn]ATERLAHFLQRSSF[Sar]A[NMeI]PSSTEVGSNT[Hyp]-NH2
SMILES: CC[C@H](C)[C@@H](C(=O)N1CCC[C@H]1C(=O)N[C@@H](CO)C(=O)N[C@@H](CO)C(=O)N[C@H](C(=O)N[C@@H](CCC(=O)O)C(=O)N[C@H](C(=O)NCC(=O)N[C@@H](CO)C(=O)N[C@@H](CC(N)=O)C(=O)N[C@H](C(=O)N1C[C@H](O)C[C@H]1C(N)=O)[C@@H](C)O)C(C)C)[C@@H](C)O)N(C)C(=O)[C@H](C)NC(=O)CN(C)C(=O)[C@H](Cc1ccccc1)NC(=O)[C@H](CO)NC(=O)[C@H](CO)NC(=O)[C@H](CCCNC(=N)N)NC(=O)[C@H](CCC(N)=O)NC(=O)[C@H](CC(C)C)NC(=O)[C@H](Cc1ccccc1)NC(=O)[C@H](Cc1c[nH]cn1)NC(=O)[C@H](C)NC(=O)[C@H](CC(C)C)NC(=O)[C@H](CCCNC(=N)N)NC(=O)[C@H](CCC(=O)O)NC(=O)[C@@H](NC(=O)[C@H](C)NC(=O)[C@H](CCCN)NC(=O)[C@@H](NC(=O)[C@H](C)NC(=O)[C@@H](NC(=O)CNC(=O)[C@H](CC(=O)O)NC(=O)[C@H](CCCNC(=N)N)NC(=O)CC[C@H](NC(=O)CCCCCCCCCCCCCCCCCCC(=O)O)C(=O)O)[C@@H](C)O)[C@@H](C)O)[C@@H](C)O
As for B4, the hCT-R EC50 [nM] (cAMP formation, 1321N1 cells expressing hCT-R) in assay [1] was determined as 20.3 nM. The hAMYR3 EC50 [nM] (cAMP formation, 1321N1 cells expressing hAMYR3) in assay [2] is 17.1 nM.

B5: Compound 1 (peptide)
peptide: {C20 diacid-γGlu}-RDGTAT[Dap]ATERLAHFLQRSSF[Sar]A[NMeI]LSSTEVGSNT[Hyp]-NH2
modifications: lactam 2-7
SMILES: CC[C@H](C)[C@@H](C(=O)N[C@@H](CC(C)C)C(=O)N[C@@H](CO)C(=O)N[C@@H](CO)C(=O)N[C@H](C(=O)N[C@@H](CCC(=O)O)C(=O)N[C@H](C(=O)NCC(=O)N[C@@H](CO)C(=O)N[C@@H](CC(N)=O)C(=O)N[C@H](C(=O)N1C[C@H](O)C[C@H]1C(N)=O)[C@@H](C)O)C(C)C)[C@@H](C)O)N(C)C(=O)[C@H](C)NC(=O)CN(C)C(=O)[C@H](Cc1ccccc1)NC(=O)[C@H](CO)NC(=O)[C@H](CO)NC(=O)[C@H](CCCNC(=N)N)NC(=O)[C@H](CCC(N)=O)NC(=O)[C@H](CC(C)C)NC(=O)[C@H](Cc1ccccc1)NC(=O)[C@H](Cc1c[nH]cn1)NC(=O)[C@H](C)NC(=O)[C@H](CC(C)C)NC(=O)[C@H](CCCNC(=N)N)NC(=O)[C@H](CCC(=O)O)NC(=O)[C@@H](NC(=O)[C@H](C)NC(=O)[C@@H]1CNC(=O)C[C@H](NC(=O)[C@H](CCCNC(=N)N)NC(=O)CC[C@H](NC(=O)CCCCCCCCCCCCCCCCCCC(=O)O)C(=O)O)C(=O)NCC(=O)N[C@@H]([C@@H](C)O)C(=O)N[C@@H](C)C(=O)N[C@@H]([C@@H](C)O)C(=O)N1)[C@@H](C)O
B5: the hCT-R EC50 [nM] (cAMP formation, 1321N1 cells expressing hCT-R) in assay [1] turned out to be 13.6 nM. Besides, the hAMYR3 EC50 [nM] (cAMP formation, 1321N1 cells expressing hAMYR3) in assay [2] is 9.3 nM.

The values above are taken from patent US20180071366A1.
